For the assay, the target named is TIM (the TIM-EGFP-LacI bait of the FRAP experiment, not named). The assay is described as follows: FRAP.

In turn, “TagRFP-IWS1-TND (from UniProt Q96ST2 614-692) (domain or fragment)” showed an FRAP half-life of 11.7 s.

Source of the values: paper PMC8943916.
